According to patent publication US20100190701A1 (INDIANA UNIVERSITY RESEARCH AND TECHNOLOGY, published 2010):
Like-named read-outs stand apart in the source and are kept apart here. Blank lines part the entries; values can stand above or below the binder they belong to. Bridge positions count the residues as written; N and C are the ends. Square brackets hold non-standard residues; d marks the D form. Ends that are not written are not given here. Nle = CCCC[C@H](N)C(=O)O; Orn = NCCC[C@H](N)C(=O)O; PEG = not defined here; Aib = CC(C)(N)C(=O)O

Legend:
Test in all cases: cell-based or functional assay
[1] = target: T1, GLP-1 receptor (UniProt P43220 24-463, limits assumed)
[2] = target: T2, glucagon receptor (UniProt P47871 26-477, limits assumed)
T2 sequence (P47871 26-477 limits assumed): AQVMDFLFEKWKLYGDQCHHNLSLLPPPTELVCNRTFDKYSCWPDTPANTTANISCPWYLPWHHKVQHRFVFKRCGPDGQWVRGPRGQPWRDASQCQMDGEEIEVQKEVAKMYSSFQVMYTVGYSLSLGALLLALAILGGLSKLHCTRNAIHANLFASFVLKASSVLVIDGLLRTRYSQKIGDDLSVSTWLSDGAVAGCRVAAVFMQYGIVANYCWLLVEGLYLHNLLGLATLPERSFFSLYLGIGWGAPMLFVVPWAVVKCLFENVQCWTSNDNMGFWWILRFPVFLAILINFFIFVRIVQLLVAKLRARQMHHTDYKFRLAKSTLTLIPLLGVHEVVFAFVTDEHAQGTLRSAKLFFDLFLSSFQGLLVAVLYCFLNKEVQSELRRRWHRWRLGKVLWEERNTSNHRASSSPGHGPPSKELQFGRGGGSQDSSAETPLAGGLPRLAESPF

[3] = target: T2, glucagon receptor; remark: listed apart in the source
[4] = target: T1, GLP-1 receptor; remark: listed apart in the source
[5] = target: T1, GLP-1 receptor; remark: listed apart in the source
[6] = target: T1, GLP-1 receptor; remark: listed apart in the source

- EC50 [1]: 0.02 nM
Binder: HSQGTFTSDYSKYLDERRAKDFVQWLMDGGPSSGAPPPS-NH2 [E16K20-MDGG30 PSSGAPPPS (SEQ ID NO: 526)]

- EC50 [2]: 1.16 nM
- EC50 [1]: 0.21 nM
Binder: HSQGTFTSDYSKYLDSRRAQDFVQWLVKGGPSSGAPPPS-NH2 [-VKGG30 PSSGAPPPS (SEQ ID NO: 524)]

- % Potency Relative to Native [3]: 9.2%
- % Potency Relative to Native [4]: 38%
Binder: H[Aib]QGTFTSDYSKYLDEQAAKEFIC(PEG)WLMNT-NH2 (lactam 16-20; not fully specified; reading uncertain) [Chimera AIB2, Cys24 Lactam (SEQ ID NO: 504), parent w/PEG]

- EC50 [1]: 0.31 nM
Binder: HSQGTFTSDYSKYLDSRRAQDFVQWLMNGGPSSGAPPPS-NH2 [-MNGG30 PSSGAPPPS (SEQ ID NO: 522)]

- EC50 [2]: 0.14 nM
Binder: HSQGTFTSDYSKYLDSRRAQDFVQWLMNTGPSSGAPPPS (C-terminal amide) [Glucagon-Cex]

Further lines, the binder ahead of its results:

Binder: H[Aib]QGTFTSDYSKYLDEQAAKEFIC(PEG)WLMNT-NH2 (not fully specified; reading uncertain) [Chimera AIB2, Cys24 (SEQ ID NO: 486), parent w/PEG]
- % Potency Relative to Native [3]: 2.6%
- % Potency Relative to Native [4]: 82.5%

Binder: HS[Orn]GTFTSDYSKYLDERRAQDFVQWLMNT-NH2 [Orn3, E16 Gluc-NH2]
- cAMP Induction, Percent Potency Relative to Native Ligand [5]: 0.1%

Binder: H[Aib]QGTFTSDYSKYLDEQAAKEFICWLMNT-NH2 (lactam 16-20) [Chimera AIB2, Cys24 Lactam (SEQ ID NO: 504), parent w/o PEG]
- % Potency Relative to Native [3]: 114%
- % Potency Relative to Native [4]: 230%

Binder: HAEGTFTSDVSSYLEGQAAKEFIAWLVKGG-NH2 [GLP-1-VKGG30 (SEQ ID NO: 527)]
- EC50 [1]: 0.025 nM

Binder: HSQGTFTSDYSKYLDSRRAQDFVQWLMDGGPSSGAPPPS-NH2 [-MDGG30 PSSGAPPPS (SEQ ID NO: 525)]
- EC50 [2]: 0.12 nM
- EC50 [1]: 0.13 nM

Binder: HSQGTFTSDYSKYLEERRAQDFVQWLMNT-NH2 [E15, E16 Gluc-NH2]
- cAMP Induction, Percent Potency Relative to Native Ligand [6]: 9.2%

Binder: HSQGTFTSDYSKYLDSRRAQDFVQWLMKGGPSSGAPPPS-NH2 [-MKGG30 PSSGAPPPS (SEQ ID NO: 523)]
- EC50 [2]: 0.61 nM
- EC50 [1]: 0.8 nM

Binder: H[Aib]QGTFTSDYSKYLDEQAAKEFICWLMNT-NH2 [Chimera AIB2, Cys24 (SEQ ID NO: 486), parent w/o PEG]
- % Potency Relative to Native [3]: 15.4%
- % Potency Relative to Native [4]: 161%

Binder: HS[Nle]GTFTSDYSKYLDERRAQDFVQWLMNT-NH2 [NLeu3, E16 Gluc-NH2]
- cAMP Induction, Percent Potency Relative to Native Ligand [5]: 20.6%
